For this assay, the target named is dog street rabies virus DRV-4. Nature of the assay: cell-based or functional assay.

B1: plant-derived human rabies monoclonal antibody MAb^P (rabies human MAb S057 expressed in transgenic (antibody, V domains shown)
VH: QVQLVQSGAEVKKPGSSVKVSCKASGGTFNRYTVNWVRQAPGQGLEWMGGIIPIFGTANYAQRFQGRLTITADESTSTAYMELSSLRSDDTAVYFCARENLDNSGTYYYFSGWFDPWGQGTLVTVSS
VL: QSALTQPRSVSGSPGQSVTISCTGTSSDIGGYNFVSWYQQHPGKAPKLMIYDATKRPSGVPDRFSGSKSGNTASLTISGLQAEDEADYYCCSYAGDYTPGVVFGGGTKLTVLG
With B1, the Virus neutralizing antibody (VNA) titer, RFFIT was found to be 81 IU/ml.
